Laboratory results taken from the DeepSol protein solubility set.

Assay: soluble on expression in E. coli; label from the status in PepcDB or PDB records

| Sequence | soluble on expression in E. coli |
| --- | --- |
| MSLHMSQTTQTDIITLGAVAAKIPQLIPKVPHLLNGLKQAYLRTPSTPAGLGIAFEKAVKRNPDGMALLFEDERYSYQELNEWANQIAHFYLSLGARKGDVIAVMVENRSELLATIVALAKIGVTAALVNTSQTGKVLTHSINLVQPIALIVGEEVRKCVDEIKQDLNLAQDRFHWFANQATRQDAGSAPRDYINLAEKIDHFPKFNPPTTQTVQGKDGLFYIYTSGTTGLPKAVIFTHSRWTLAYGTYGHVLALDENDVMYVTLPMYHATGIVVCWCGVIAGSATLALRRKYSTSAFWKDVQKFNASAIGYVGELCRYLMDAPPSELDRHHRVTKMIGNGMRPNIWDKFKQRFGVKEILELYASSEGNVGFSNIFNFDNTVGFSPTPYAVIAFDKEKNEPIRDQNGYCQKVKTGEVGLLVGKITRRSPFDGYTDPEKNKSVILKNVFKKGDSYFNTGDLVRDIGFRHAQFVDRLGDTFRWKGENVSTTEVENMLCEYEKIVEAVVYGVEIPNTNGRAGMAAITLNDQAEFNDEDMSAMVNTFKKCLPAYAIPVFLRVQKTVETTGTFKYQKNKLKEQAFDPSKTEERLLVLLPGESAYCEVTSEIFDNIQAYKYREGHHHHHH | soluble |
| MSLIEERLKHYLEKQIPARDQYIEQMEREAHEQQVPIMDLLGMESLLHLLKMAAPARILEIGTAIGYSAIRMAQALPEATIVSIERDERRYEEAHKHVKALGLESRIELLFGDALQLGEKLELYPLFDVLFIDAAKGQYRRFFDMYSPMVRPGGLILSDNVLFRGLVAETDIEHKRHKQLATKIDTYNQWLLEHPQYDTRIFPVGDGIAISIKRETKGDTDDEKAEGHHHHHH | soluble |
| MSLIELRDKTILIDGRPRLVLSGEVHYFRLRREDWQDRLDKLKAAGCNTVASYIPWLCHETVEGRIDLDGRSRPELDLGAFIDLCRANGLWFIARPGPFVMAELKNEGLPYWLYEKHPEIVPVGWDGKPATTHTVDYLAPGFLDAARRWYDAVMAVITPRLQPGGGNVIALQLDNEIGMLSWLSNCPDLTENVLADFAAWLKVRHRPESLRKRYPFDPDEPEARRAGIRSPAESYALALLRDLGHYMRDRFARYVATLRSWAETAGIRGIPFVVNIHGTGGGRALSFPIGISQLYPSYTQDFGYLSGSDFYLGNLTFDNFQDLYLCNAFMEAVHRPEQPLASMEFECGDGNYGNTYGNRLDPSAADFKARMCLAQGARLLNYYLFTGGHNYRLDPPPPDGDGRIAFTGERHGFAAPVDPDGRLNYSYPRLANLTRTVAAVADKLAAMWEEHDRVAFGFIPDYFMTESRHPASAAMATIVRNLEANRGPSAWETMARAMLLGGYRFGAVDLQNRPLDVKTTPVLALGSARYMDTAVQRKLADWLSAGGGLLLYGEVPLYGMEGEPCTLLAEALGTEISGFRQASERYFLALAADGWARPRPEVRSHFAQTFAAPLAEALLRVCDTGEICGFETAVGKGRAVVIGTAYPCDIALFRTALERLGAVAALRHDCENHGIFMTSTANAAGERFIHLLNLDGFDKRFHLYEHGRPLFDGHEIELRARDGVMLPLAMREGHHHHHH | not soluble |
| MSLIGVIGVKRNVDIAIREKLALYPKKHKKYVGELLNSFKEVVILNTCNRTEIYFNCTEEISEDEIFDKIFNVFNWNDDLKKYMFLSKEKRAVTHLMEVICGFHSRILGEDQILGQIKGAYKTAISDNSISSELQKMFEIAIACGKKFKTECKMFEVPVSSVSISINSALLKGCRKFMVLGYGEIGKLAIKHLLSHKVECIYLIVRDKSKASDLEGEIVEVLDFNEKNQVINEIDCIVSCTAAPHTVVRNEDIKTEGETIHIYDLAVPRDVDKELSEKERVILKDIDEISKIDDKNKKIRKERMEEYKHIVEESIDEFLNWLKIREVSSKIRNIKIRENEICSERIKTFSNKGNGENAKLAERMIKSTADAYVNRAIELLKSEALKGSDSYCAEIIEKIFLTEGHHHHHH | soluble |
| MSLIIKKLKQSHSVKILCEVFNVHRSSYHYWLKRPALINAETIKLRSLISEAHAASNGSAGARTIADIVTNQGVKLSRYRATKLMRTLGLVSCQEPKHRYRKASQEHIDVPNHLSRQFAVTAPNEVWAGDVTYIWTGNRWMYLAVVIDLFARKVIGWSMSLSPDSRLTGKALSMAYESRGKPKGVMFHSDQGSHYTSRKYRQLLWRFQIKQSLSRRGNCWDNAPIERFFRSLKTEWVPTVGYRSFAEAQQEITRYIIGYYCQLRPHQYNGGLTPNESERLYWENSKTVANFSEGHHHHHH | not soluble |
| MSLIKLIATDMDGTLLNAAHEISQPNIDAIKYAQEQGITVVIATGRAFYEAQAPVADTDLTVPYICLNGAEVRDETFNVMSTSHLNKSLVHKITNVLKDAGIYYQVYTSRAIYTEDPQRDLDIYIDIAERAGQHANVERIKNGIQRRIDNGTLKVVDNYDAIENIPGELIMKILAFDGNLEKIDKASKILAESPNLAISSSSRGNIEITHSDAQKGIALETIAERLGIEMKDVMAIGDNLNDLSMLEKVGYPVAMENGAEEVKKIAKYVTDTNENSGVGKAIMKLLREQEGHHHHHH | soluble |
| MSLILCCGEALIDMLPRQTTLGEAGFAPYAGGAVFNTAIALGRLGVPSAFFTGLSDDMMGDILRETLRASKVDFSYCATLSRPTTIAFVKLVDGHATYAFYDENTAGRMITEAELPALGADCEALHFGAISLIPEPCGSTYEALMTREHETRVISLDPNIRPGFIQNKQSHMARIRRMAAMSDIVKFSDEDLAWFGLEGDEDTLARHWLHHGAKLVVVTRGAKGAVGYSANLKVEVASERVEVVDTVGAGDTFDAGILASLKMQGLLTKAQVASLSEEQIRKALALGAKAAAVTVSRAGANPPFAHEIGLEGHHHHHH | soluble |
| MSLIRVAIADDHQTLIDGISLRFDGNESIDLVFSANDGKDFLKQLKITPVDLVITDLKMPKMDGVTLAREIKRDFKNVKVIVLSMFDQPDVINKMVDVDVDGYILKTSSLDELVTAIGEVNKGKKYFDKHLHGITSLFDVNSTSSKTSLSNAEKDILNLIAEGKTSQEIANERACAVSTIHTHRRNMAHKLELYGKGELLRYAMDKKYNFEEGHHHHHH | soluble |
| MSLISPIIRLSHVTFQTSSAARVIKEFVTKYQFHPFAARGLDGGSPCQVALKNGGVVFMVNENTPKTHENSVLLYDFPLQIPFPDTACNVTFEVEDVSGLYHHLVDEGCQLLLPPTELHDDFGSVTYCIVKSVVGNVSHTLIDRTHYRSSFLPGFEYLKNSTHNLSSGNMTHVDHIAYTCPRGTSPSILEWYRRCFGFQHFPLSKGEDPERGFEIIGPRIGLRLTSLVCPKLSKECKLVLAESLPQEGINQVDEFMQQHTGGGIQHIGLSTPDIFKAAEDLSKLGVCFAIQPSSYYSETKKQKEIYSVGLEPQMLAQFGILMDSATDDILSNDAPKKFLLQVFAEPLFSKNSAFLELIERRSAEGFGEGNIRALWRSMQDLQEDQTVKEQEGEGHHHHHH | soluble |
| MSLIVRRYLKQDLCAVARLEVRSFEIGPYDKEYLREVLENASSISYIAQISDKIVGYIVAMPLNSQEIDIESIATDPDFRKRSIGTRLIARIENESKSLGYRNIILEVRKENIEAISFYSRLGFNIKEFIVNYYEEYYRGSRDAYRMVKSLSEGHHHHHH | not soluble |
| MSLKARRGLSASDLINLNADRLQCLLSGHPKFVFNKGRRGWGKEALERYAPEYANTFRLHWLAVKREHMIWRCDNEMDIHQLLTAAMDPQEFARFSQVWQENGLDHNWLPLPVHPWQWQEKIATDFIADFGEGRMVSLGEFGDQWLAQQSLRTLTNASRRGGLDIKLPLTIYNTSCYRGIPGRYIAAGPLASRWLQQVFATDATLVQSGAVILGEPAAGYVSHEGYAALARAPYRYQEMLGVIWRENPCRWLKPDESPFLMATLMEWDENNQPLAGAYIDRSGLDAETWLTQLFRVVVVPLYHLLCRYGVALIAHGQNITLAMKEGVPQRVLLKDFQGDMRLVKEEFPEMDSLPQEVRDVTSRLSADYLIHDLQTGHFVTVLRFISPLMVRLGVPERRFYQLLAAVLSDYMKKHPQMSERFALFSLFRPQIIRVVLNPVKLTWPDLDGGSRMLPNYLEDLQNPLWLVTQEYESEGHHHHHH | soluble |
| MSLKDFRPLILVAEDDDSNFKLIKAIIGKKCDILWAKNGEEMLNLYREHTQDAHAILMDIKMPIMNGLEATRIIREEGASLPIIMQTAYAFSSDRENAMQAGASEVLVKPITVSALRGCLSSYFPEIKWEGHHHHHH | soluble |
| MSLKDVSLSSFDAHDLDLDKFPEVVRDRLTQFLDAQELTIADIGAPVTDAVAHLRSFVLNGGKRIRPLYAWAGFLAAQGHKNSSEKLESVLDAAASLEFIQACALIHDDIIDSSDTRRGAPTVHRAVEADHRANNFEGDPEHFGVSVSILAGDMALVWAEDMLQDSGLSAEALARTRDAWRGMRTEVIGGQLLDIYLESHANESVELADSVNRFKTAAYTIARPLHLGASIAGGSPQLIDALLHYGHDIGIAFQLRDDLLGVFGDPAITGKPAGDDIREGKRTVLLALALQRADKQSPEAATAIRAGVGKVTSPEDIAVITEHIRATGAEEEVEQRISQLTESGLAHLDDVDIPDEVRAQLRALAIRSTERREGHHHHHH | soluble |
| MSLKEFLIKKIEFTLFEVCIPDIGADPSGFGVWYEPGPGTPQKRFAVRIFTDEGPVGVYVPPRSRATVIMPAAIALAHFLIRKPALERERHYQTMRRITKHVGEAGIGALDIALWDLGGKISGQPISQMLGGHRRKLPSYASTIPGDEHPKGLSSSEAYADFAQQCLEIGYKGYKMHGWKEGNPQRESEMIRAVARQVGGSMDIMYDAACHLKTLTDAIRVGRVCDEHELLWYEDPYADGGLTIRGHRALKEKVRTPVMIGEHVRNPEIHTELLVSGATDFGRVDPDYDGGITGSYKAAMAAESLGYDVEVHSCGPAMRQLMAALSISNYYEINLVHPIGPNPWQLPVYLNGYSDELDCIDREGMVDVSQSPGLGVDYDWEWIEKNSLERIIVDKAKEGHHHHHH | soluble |
| MSLKEKKLVYLNSKQYEDAYRKKSVLLNDINNINEQYFDLKNSIKDYNKSSKDFESTKRQMEDELILNKMELGTLDVVGEGVEITLDDSGNQVSASSEDANFREIRTIYQVIHDFDMRAVINDIKCSGAEAISINGQRIVSNTEIYCNAEFLLINGVKISAPFNIKAIGNKNKLKTYMLASGNYLQRLKRRSIYVNLKTVNDVKIPAFKGELRHSNIKSKEGHHHHHH | soluble |
| MSLKELIALKRKVGLPGVTFAAMADGIWVLQVLPGAGIEKTGLRKGHQIVGVGGKPLAGNKLEDLFKAIEANNITDTMSRGSSERMYSRMTRDTKTQGPVVVLNVKQSRQQEKPFLILCKKEMFRSKIIEIEEDEFEDEVLKAPLPVAVTFWGDSCEPCKEFVPVLEAESAKYAGKVKFVNINVDGNRKLADQLAVKEVPALMVYKGGSAVATATGKLPREKVAEMLQDAAGREGHHHHHH | soluble |
| MSLKFLLTTAQGIEDIAKREVSLLLKKLGISFQIEEKPLGIEGRLLLEAEKAYYVDEKGRKRELSISTYLNENSRLLHRVIIEIASEKFNGIEKDESEEALKRIKDFVSSLPVEQFVKVSETFAVRSFRKGDHNITSIDIARTVGEAIFERLSRFGTPLVNLDHPAVIFRAELIKDVFFLGIDTTGDSSLHKRPWRVYDHPAHLKASIANAMIELAELDGGSVLDPMCGSGTILIELALRRYSGEIIGIEKYRKHLIGAEMNALAAGVLDKIKFIQGDATQLSQYVDSVDFAISNLPYGLKIGKKSMIPDLYMKFFNELAKVLEKRGVFITTEKKAIEEAIAENGFEIIHHRVIGHGGLMVHLYVVKGIITITTDPNSSSVDKLAAALEHHHHHH | soluble |
